Results from patent publication US20230203107A1, “PEPTIDE FOR TREATING SEPSIS DERIVED FROM RV3364C PROTEIN OF MYCOBACTERIUM TUBERCULOSIS” (priority 2021, published 2023).

Columns and labels:
[1] = system: macrophages (BMDM); format: cell-based, mouse; conditions: 1 μg/ml, 18 hours, ELISA
[2] = biological target: T1, YEATS4 (Mus musculus, UniProt Q9CR11); assay: Co-immunoprecipitation, cell fractionation and immunostaining in macrophages and HEK293T cells; format: cell-based; conditions: cell fractionation (Raw264.7) and immunostaining (BMDM), 1 μg/ml rRv3364c, time course
T1 construct: harvesting BMDM cells with different treatment times of 1 μg/ml rRv3364c, performing immunoprecipitation (IP) with αHis; endogenous in cells; host or cells: mouse BMDM, Raw264.7

[3] = system: YEATS4; assay: as above; format: cell-based; conditions: macrophages and HEK293T cells, 1 μg/ml rRv3364c, 15 to 30 min
[4] = system: SNX9; assay: as above; format: cell-based; conditions: macrophages and HEK293T cells, 1 μg/ml rRv3364c, 15 to 30 min
[5] = biological target: T2, SNX9 (Mus musculus, UniProt Q91VH2); assay: as above; format: cell-based; conditions: cell fractionation (Raw264.7) and immunostaining (BMDM), 1 μg/ml rRv3364c, time course
T2 construct: harvesting BMDM cells with different treatment times of 1 μg/ml rRv3364c, performing immunoprecipitation (IP) with αHis; endogenous in cells; host or cells: mouse BMDM, Raw264.7

[6] = biological target: T3, ZBTB46 (zinc finger and BTB domain-containing 46) (Homo sapiens, UniProt Q86UZ6); assay: HuProt human proteome microarray, binding of rRv3364c; conditions: cell-free protein microarray, signal at 532 nm
T3 construct: containing 20,000 or more full-length recombinant human proteins; purchased CDI Labs, USA (HuProt Human Proteome Microarray)
T3 sequence (Q86UZ6 1-589): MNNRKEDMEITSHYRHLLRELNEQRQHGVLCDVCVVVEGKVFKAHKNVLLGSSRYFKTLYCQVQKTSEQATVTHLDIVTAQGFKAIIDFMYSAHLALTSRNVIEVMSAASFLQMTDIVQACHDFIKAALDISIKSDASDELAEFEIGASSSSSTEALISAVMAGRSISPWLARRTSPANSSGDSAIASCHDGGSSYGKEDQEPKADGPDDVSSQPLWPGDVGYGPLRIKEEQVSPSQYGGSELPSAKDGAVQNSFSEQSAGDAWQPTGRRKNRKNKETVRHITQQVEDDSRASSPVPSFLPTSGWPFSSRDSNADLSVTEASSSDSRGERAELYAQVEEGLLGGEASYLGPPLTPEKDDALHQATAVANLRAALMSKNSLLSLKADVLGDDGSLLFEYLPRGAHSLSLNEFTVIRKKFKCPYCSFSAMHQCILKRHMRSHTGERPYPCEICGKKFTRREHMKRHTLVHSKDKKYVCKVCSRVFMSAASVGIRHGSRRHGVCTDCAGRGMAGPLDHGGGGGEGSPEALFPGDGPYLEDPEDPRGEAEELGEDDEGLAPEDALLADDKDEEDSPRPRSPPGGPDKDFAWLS
Source text: (§1) FIGS. 1A and 1B illustrate results of screening candidate proteins predicted to potentially interact with rRv3364c in a CDI HuProt™ Human Proteome Microarray. Each figure illustrates a section of a protein array showing a positive response. A signal at 532 nm was stronger in an rRv3364c group than in a control group;
(§2) In order to identify a protein binding to rRv3364c, human protein microarrays (CDI Labs, USA) containing 20,000 or more full-length recombinant human proteins were used. Specifically, the protein microarrays were treated with a blocking buffer (2% BSA in PBS, 0.1% […]) for 2 hours. 3 μg of […] on the microarrays at 4° C. for 8 hours. Thereafter, each array was treated with 1 μg of streptavidin fluorescence Alexa Fluor 532 nm at 4° C. for 1 hour. Microarray results were detected using a GenePix 4100A microarray laser scanner (Molecular Devices, USA).
(§3) A customized protein binding assay was used to identify interacting proteins, and candidate proteins capable of potentially interacting with rRv3364c were selected. […] In FIG. 1A, an affinity score (A score) is a normalized signal intensity of two overlapping points, and a specificity score (B score) is a difference between the affinity score of the protein and the protein ranked next thereto.

[7] = biological target: T4, SNX9 (sorting nexin 9) (Homo sapiens, UniProt Q9Y5X1); assay: as above; conditions: cell-free protein microarray, signal at 532 nm
T4 construct: containing 20,000 or more full-length recombinant human proteins; purchased CDI Labs, USA (HuProt Human Proteome Microarray)
Source text: as §1, §2, §3

[8] = biological target: T5, EGFLAM (EGF-like Fibronectin type III and Laminin G domains) (Homo sapiens, UniProt Q63HQ2); assay: as above; conditions: cell-free protein microarray, signal at 532 nm
T5 construct: containing 20,000 or more full-length recombinant human proteins; purchased CDI Labs, USA (HuProt Human Proteome Microarray)
T5 sequence (Q63HQ2 25-1017): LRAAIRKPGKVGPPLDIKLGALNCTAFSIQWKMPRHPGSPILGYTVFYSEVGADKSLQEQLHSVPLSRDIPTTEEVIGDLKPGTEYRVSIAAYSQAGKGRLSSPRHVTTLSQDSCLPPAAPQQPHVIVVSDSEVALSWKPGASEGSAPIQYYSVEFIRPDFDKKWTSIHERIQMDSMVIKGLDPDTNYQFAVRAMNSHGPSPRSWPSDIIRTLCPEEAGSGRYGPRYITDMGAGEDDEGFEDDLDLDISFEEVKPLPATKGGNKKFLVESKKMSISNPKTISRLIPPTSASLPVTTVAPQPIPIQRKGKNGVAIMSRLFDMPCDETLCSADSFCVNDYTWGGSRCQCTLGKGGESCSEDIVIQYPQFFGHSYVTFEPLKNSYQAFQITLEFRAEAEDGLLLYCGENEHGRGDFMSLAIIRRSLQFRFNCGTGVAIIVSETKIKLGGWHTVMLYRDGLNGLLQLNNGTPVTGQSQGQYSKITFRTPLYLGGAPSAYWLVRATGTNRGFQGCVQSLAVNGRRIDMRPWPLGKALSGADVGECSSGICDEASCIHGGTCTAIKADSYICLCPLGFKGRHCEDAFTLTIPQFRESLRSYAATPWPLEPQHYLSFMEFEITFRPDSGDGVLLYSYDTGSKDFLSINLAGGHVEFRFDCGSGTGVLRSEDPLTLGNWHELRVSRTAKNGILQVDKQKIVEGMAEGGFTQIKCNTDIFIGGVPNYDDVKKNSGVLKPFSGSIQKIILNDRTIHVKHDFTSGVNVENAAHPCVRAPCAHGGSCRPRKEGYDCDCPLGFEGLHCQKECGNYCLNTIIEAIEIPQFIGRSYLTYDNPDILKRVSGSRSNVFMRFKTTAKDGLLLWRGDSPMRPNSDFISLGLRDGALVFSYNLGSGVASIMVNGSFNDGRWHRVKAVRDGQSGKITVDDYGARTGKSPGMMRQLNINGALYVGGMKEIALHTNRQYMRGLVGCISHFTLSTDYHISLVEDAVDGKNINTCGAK
Source text: as §1, §2, §3

[9] = biological target: T6, YEATS4 (YEATS domain-containing protein 4) (Homo sapiens, UniProt O95619); assay: as above; conditions: cell-free protein microarray, signal at 532 nm
T6 construct: containing 20,000 or more full-length recombinant human proteins; purchased CDI Labs, USA (HuProt Human Proteome Microarray)
Source text: as §1, §2, §3

[10] = system: macrophages
[11] = biological target: T7, cathepsin G (Homo sapiens, UniProt P08311); conditions: membrane protein of macrophages; cited from earlier work
T7 sequence (P08311 21-244): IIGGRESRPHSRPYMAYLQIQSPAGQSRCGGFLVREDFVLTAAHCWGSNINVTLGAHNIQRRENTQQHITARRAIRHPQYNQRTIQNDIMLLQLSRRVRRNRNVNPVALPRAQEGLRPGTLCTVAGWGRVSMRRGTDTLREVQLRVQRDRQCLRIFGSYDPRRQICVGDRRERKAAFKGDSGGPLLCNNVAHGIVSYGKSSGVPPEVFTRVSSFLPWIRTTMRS

T4 sequence (Q9Y5X1 whole entry): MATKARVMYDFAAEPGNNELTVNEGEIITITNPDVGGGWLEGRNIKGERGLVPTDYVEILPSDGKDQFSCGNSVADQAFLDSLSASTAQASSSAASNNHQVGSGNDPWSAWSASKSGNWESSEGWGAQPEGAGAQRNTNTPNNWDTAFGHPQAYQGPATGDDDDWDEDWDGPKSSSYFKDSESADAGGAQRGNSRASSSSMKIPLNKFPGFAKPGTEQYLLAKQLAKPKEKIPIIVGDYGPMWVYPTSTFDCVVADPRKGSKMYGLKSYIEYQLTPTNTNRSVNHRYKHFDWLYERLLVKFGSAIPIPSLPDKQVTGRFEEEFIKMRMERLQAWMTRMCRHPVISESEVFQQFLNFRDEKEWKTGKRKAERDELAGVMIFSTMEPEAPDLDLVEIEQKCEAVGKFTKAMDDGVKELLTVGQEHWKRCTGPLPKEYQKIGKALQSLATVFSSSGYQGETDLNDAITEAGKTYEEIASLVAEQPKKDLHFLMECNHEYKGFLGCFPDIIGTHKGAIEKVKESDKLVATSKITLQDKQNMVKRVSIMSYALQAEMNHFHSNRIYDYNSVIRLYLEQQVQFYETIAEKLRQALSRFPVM
T6 sequence (O95619 whole entry, the tested form may be a part): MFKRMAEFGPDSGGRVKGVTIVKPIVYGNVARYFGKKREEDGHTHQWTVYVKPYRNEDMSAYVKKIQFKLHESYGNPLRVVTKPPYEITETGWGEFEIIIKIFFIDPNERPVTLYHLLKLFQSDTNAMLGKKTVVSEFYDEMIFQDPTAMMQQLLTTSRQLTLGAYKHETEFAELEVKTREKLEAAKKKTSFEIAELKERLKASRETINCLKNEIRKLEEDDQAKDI
T2 sequence (Q91VH2 whole entry): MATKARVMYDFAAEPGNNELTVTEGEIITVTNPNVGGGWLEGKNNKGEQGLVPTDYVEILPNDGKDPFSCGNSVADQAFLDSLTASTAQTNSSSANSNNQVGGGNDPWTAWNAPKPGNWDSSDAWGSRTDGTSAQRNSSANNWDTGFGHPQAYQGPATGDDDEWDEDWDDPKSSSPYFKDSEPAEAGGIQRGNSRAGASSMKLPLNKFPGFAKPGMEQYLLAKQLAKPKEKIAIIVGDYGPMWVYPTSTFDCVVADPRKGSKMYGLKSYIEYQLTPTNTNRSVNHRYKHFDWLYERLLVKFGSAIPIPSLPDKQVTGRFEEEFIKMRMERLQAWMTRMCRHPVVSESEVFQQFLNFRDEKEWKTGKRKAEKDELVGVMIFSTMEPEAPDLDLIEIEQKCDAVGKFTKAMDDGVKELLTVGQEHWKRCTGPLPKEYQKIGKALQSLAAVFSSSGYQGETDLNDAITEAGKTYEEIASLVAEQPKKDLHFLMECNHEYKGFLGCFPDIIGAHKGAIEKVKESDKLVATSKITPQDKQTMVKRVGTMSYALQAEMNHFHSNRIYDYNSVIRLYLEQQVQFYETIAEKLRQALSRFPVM
T1 sequence (Q9CR11 whole entry): as the sequence (O95619 whole entry, the tested form may be a part) above, with A224T counted along it

## rRv3364c: recombinant Rv3364c protein of MTB H37Rv with N-terminal 6xHis tag, expressed in E. coli, 13 kDa
[1]; BMDM, through TLR4/MyD88/TRAF6/TBK1-IRAK1 pathway
  production of pro-inflammatory cytokines (TNF-α, IL-6, and IL-12p40) and anti-inflammatory cytokines (IL-10): promoted the production
[1]; SNX9−/− BMDM
  production of rRv3364c-induced inflammatory cytokines in SNX9−/− compared to SNX9+/+ macrophages: significantly reduced
[2]
  intracellular position of binding to YEATS4: migrated to the nucleus to bind to YEATS4
[3]
  interaction with endogenous and extrinsic YEATS4 (co-immunoprecipitation): strongly interacted
[4]
  interaction with endogenous and extrinsic SNX9 (co-immunoprecipitation): strongly interacted
[5]
  intracellular position of binding to SNX9: initially bound to SNC9 in the cytoplasm
[6]
  affinity with rRv3364c: high affinity
[7]
  affinity with rRv3364c: high affinity
[8]
  affinity with rRv3364c: high affinity
[9]
  affinity with rRv3364c: high affinity
[10]
  rRv3364c-induced cytotoxicity: not observed
[11]
  enzymatic activity of cathepsin G: inhibit its enzymatic activity
